Measurements as given in paper PMC12171016, “hnRNP A1 induces aberrant CFTR exon 9 splicing via a newly discovered ESS element”.

Molecular target: hnRNP A1 tandem RRMs (UP1-like) (UniProt P09651 1-196)
Experiment: fluorescence anisotropy; 35 C; NMR buffer: sodium phosphate pH 6.5 (50 mM for tandem RRMs, 25 mM for single RRMs), 1 mM BME, 50 uM EDTA, no added salt stated; ITC 25 C, NMR 298 K (10% D2O), FA 35 C
Conditions: protein: recombinant; tags: 2xHis6-lipoyl tag removed by TEV; label: 3' fluorescein

Chain of hnRNP A1 tandem RRMs (UP1-like) (P09651 1-196): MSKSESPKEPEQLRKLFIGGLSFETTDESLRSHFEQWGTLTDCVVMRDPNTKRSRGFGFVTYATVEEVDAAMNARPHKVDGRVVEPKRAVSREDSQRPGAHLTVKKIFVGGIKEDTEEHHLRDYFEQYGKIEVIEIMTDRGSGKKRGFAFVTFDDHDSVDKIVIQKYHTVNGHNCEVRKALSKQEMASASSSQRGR

| Binder | Kd [nM] |
| --- | --- |
| CAGGGAUUUGGGGAC (ssRNA) [CFTR exon 9 ESS 15-mer ssRNA wt] | 99 |
| CAGGGAUUUCGCGUA (ssRNA) [CFTR exon 9 ESS 15-mer ssRNA mut4] | 117 |
